Test results: patent publication US20250262167A1, “COMPOUNDS, TARGETS AND PATHWAYS FOR MACROPHAGE MODULATION” (Massachusetts Institute of Technology, priority 2020, published 2025)

Tests used:
[1] = tested on: human monocyte-derived macrophages (hMDMs); test: High throughput phenotypic screen of macrophage activation (cell shape, Z-score); type: cell-based; details: known M1-/M2-activating stimuli;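 also: phalloidin and DAPI stained hMDMs imaged by high-content microscopy, cell eccentricity compared with DMSO control by T-test, round morphology scored negative, elongated positive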
Method: The Z-score was calculated by T-test to measure the difference of cell morphology between treatment and control. Stimuli had negative Z-scores when induced cells to round morphology and positive scores when induced cells to elongated morphology. […] Equally mixed human monocytes isolated from fresh blood of 4 healthy donors were cultured in vitro with 50 ng/mL M-CSF for 7 days. hMDMs were trypsinized and plated on 384-well plates (5000 cells/well in 50 μL). Cells were recovered in 10 ng/mL M-CSF for 16 hrs and then treated with compounds for 24 hrs. Cells were washed, fixed and stained with Phalloidin and DAPI. The plates were scanned with a high-content microscope with six-fields per well to quantify the cell number and cell morphology. […] The cell eccentricity was calculated to measure the cell morphology. The Z-score was calculated by T-test to measure the difference in cell morphologies between each compound and DMSO control.
Cells were treated with a library of over 4000 individual compounds or drugs at the final concentration of 20 μM using the CyBi-Well simultaneous pipettor (CyBio). […] After 24 hr incubation, supernatants were removed using the microplate washer (Bioteck) and cells were fixed by adding 50 μL 16% paraformaldehyde (Thermo Scientific) with the dispenser for 20 minutes. Cells were then washed with 50 μL 1×PBS twice and incubated for 20 minutes with NucBlue and AF746 Phalloidin (Invitrogen) to stain nucleus and cytoskeleton. Cells were then washed with 50 μL 1×PBS twice and maintained in PBS for the image acquirement. Plates were read in the Opera Phenix high content screening system (PerkinElmer) to photograph cells using 20× objective in 2 fluorescent channels (Blue and FarRed). A total of 6 different fields in each well and an average of 1,000 cells were imaged per well. CellProfiler was used to identify each cell by overlapping signals from its nucleus and cytoskeleton, and calculate the eccentricity as the parameter to measure the cell morphology. The Z-score was calculated by T-test to measure the difference of cell morphology between each treatment and control. For each row of the 384-well plate, total 4 wells with first and last two columns treated with the same concentration of DMSO were combined as the control for the other 20 treatment wells in that row. In the meantime, classic M1 and M2 stimuli were added to generate the gold-standard Z-score cutoffs with M1 or M2 activation. Classic M1 stimuli include LPS (100 ng/mL), IFNγ (50 ng/mL, Peprotech), TNFα (50 ng/mL, Peprotech), or IFNγ plus TNFα. Classic M2 stimuli include IL-10 (10 ng/mL, Peprotech), IL-4 (10 ng/mL, Peprotech), or IL-13 (5 ng/mL, Peprotech).

hMDMs [2] = test: Flow cytometry of M1 markers (CD80, CD86) and M2 markers (CD206, CD163) in hMDMs; type: cell-based, human; details: 24 hrs
Method: FIGS. 7A-7B show morphology and phenotypes of activated macrophages. […] The resulting macrophages were polarized to M1 by IFNγ or M2 by IL4. Then, M1 macrophages were treated with M2-type compound bosutinib ([…]) for 24 hrs, and M2 macrophages were treated with M1-type compound thiostrepton ([…]) for 24 hrs. F-actin was stained and images were acquired by fluorescent microscopy with 60× objective. Cell nuclei are stained with DAPI. Representative data were shown from two independent experiments. […] Shown are the representative staining profiles from three independent experiments. The numbers show mean fluorescent intensity (MFI)+/−standard error of the mean (SEM) for n=3 samples per group.
FIGS. 9A-9C show comparison of the differentially expressed genes induced by selected compounds (FIG. 9A), ligands for novel pathways (FIG. 9B), and controls (IL-4 and IFNγ). […] Shown are the changes of the relative mean fluorescence intensity (MFI) to controls. 0.2 refers to 20% MFI increase.
B6 mice were purchased from the Jackson Laboratory and maintained in the animal facility at the Massachusetts Institute of Technology (MIT). NSG mice were purchased from the Jackson Laboratory and maintained under specific pathogen-free conditions in the animal facilities at MIT. […] The data were analyzed by FlowJo. […]

hMDMs [3] = test: RNA-seq transcriptional response of hMDMs (GSEA, GO enrichment); type: cell-based, human; details: hMDMs, 24 hrs, GSEA
Method: Duplicate hMDM samples were treated with 2 M2-activating and 6 M1-activating compounds as well as IL-4 and IFNγ for 24 hrs. Gene expression levels were measured by RNA-seq separately. GSEA preranked analysis was performed based on the whole genome gene list ranked on gene expression changes using a gene set of 49 transcriptional modules in response to 29 stimuli in hMDMs. bosut.: bosutinib; alster.: alsterpaullone; mocet.: mocetinostat; thios.: thiostrepton; niclo.: niclosamide; chlor.: chlorhexidine; fenb.: fenbendazole; fluvo.: fluvoxamine. […] Duplicate hMDM samples were stimulated with each ligand and analyzed by RNA-seq separately.
DEGs were identified by edgeR at P<0.05 with at least 2 fold-change.
RNAs were extracted with RNeasy MiniElute kit (Qiagen), converted into cDNA and sequenced using Next-Generation Sequencing (Illumina). […] Differential expression analysis was performed using the program edgeR at P<0.05 with a 2 fold-change. The gene expression level across different samples was normalized and quantified using the function of cpm. Differentially expressed genes were annotated using online functional enrichment analysis tool DAVID (http://david.ncifcrf.gov/). Gene set enrichment analysis were performed with GSEA with FDR q-value<0.05.
Fresh hMDMs were treated with compounds at the EC for 24 hours, followed by RNA-seq.

B1: IL-4: classic M2 stimulus (protein, UniProt P05112 25-153, looked up)
Interleukin-4: HKCDITLQEIIKTLNSLTEQKTLCTELTVTDIFAASKNTTEKETFCRAATVLRQFYSHHEKDTRCLGATAQQFHRHKQLIRFLKRLDRNLWGLAGLNSCPVKEANQSTLENFLERLKTIMREKYSKCSS
Q: With B1 as the molecule, how does the cell shape induced [1] read?
A: elongated cell shape

Q: And the “expression of M1 markers CD80 and CD86” value (hMDMs [2])?
A: suppressed

Q: What about the “expression of M2 markers CD206 and CD163” value (hMDMs [2]) of the same molecule?
A: up-regulated

B2: EGF: ligand of novel pathway (protein, UniProt P01133 23-1207, looked up)
Pro-epidermal growth factor: PQHWSCPEGTLAGNGNSTCVGPAPFLIFSHGNSIFRIDTEGTNYEQLVVDAGVSVIMDFHYNEKRIYWVDLERQLLQRVFLNGSRQERVCNIEKNVSGMAINWINEEVIWSNQQEGIITVTDMKGNNSHILLSALKYPANVAVDPVERFIFWSSEVAGSLYRADLDGVGVKALLETSEKITAVSLDVLDKRLFWIQYNREGSNSLICSCDYDGGSVHISKHPTQHNLFAMSLFGDRIFYSTWKMKTIWIANKHTGKDMVRINLHSSFVPLGELKVVHPLAQPKAEDDTWEPEQKLCKLRKGNCSSTVCGQDLQSHLCMCAEGYALSRDRKYCEDVNECAFWNHGCTLGCKNTPGSYYCTCPVGFVLLPDGKRCHQLVSCPRNVSECSHDCVLTSEGPLCFCPEGSVLERDGKTCSGCSSPDNGGCSQLCVPLSPVSWECDCFPGYDLQLDEKSCAASGPQPFLLFANSQDIRHMHFDGTDYGTLLSQQMGMVYALDHDPVENKIYFAHTALKWIERANMDGSQRERLIEEGVDVPEGLAVDWIGRRFYWTDRGKSLIGRSDLNGKRSKIITKENISQPRGIAVHPMAKRLFWTDTGINPRIESSSLQGLGRLVIASSDLIWPSGITIDFLTDKLYWCDAKQSVIEMANLDGSKRRRLTQNDVGHPFAVAVFEDYVWFSDWAMPSVMRVNKRTGKDRVRLQGSMLKPSSLVVVHPLAKPGADPCLYQNGGCEHICKKRLGTAWCSCREGFMKASDGKTCLALDGHQLLAGGEVDLKNQVTPLDILSKTRVSEDNITESQHMLVAEIMVSDQDDCAPVGCSMYARCISEGEDATCQCLKGFAGDGKLCSDIDECEMGVPVCPPASSKCINTEGGYVCRCSEGYQGDGIHCLDIDECQLGEHSCGENASCTNTEGGYTCMCAGRLSEPGLICPDSTPPPHLREDDHHYSVRNSDSECPLSHDGYCLHDGVCMYIEALDKYACNCVVGYIGERCQYRDLKWWELRHAGHGQQQKVIVVAVCVVVLVMLLLLSLWGAHYYRTQKLLSKNPKNPYEESSRDVRSRRPADTEDGMSSCPQPWFVVIKEHQDLKNGGQPVAGEDGQAADGSMQPTSWRQEPQLCGMGTEQGCWIPVSSDKGSCPQVMERSFHMPSYGTQTLEGGVEKPHSLLSANPLWQQRALDPPHQMELTQ
modifications: Pro-epidermal growth factor
notes: ligand of novel pathway
Q: Which results are given for B2?
A: gene expression of TPP modules (#30, #32) (hMDMs [3]): down-regulated; gene expression of typical M1 modules (#7, #8) (hMDMs [3]): up-regulated

B3: IL10: classic M2 stimulus (protein, UniProt P22301 19-178, looked up)
Interleukin-10: SPGQGTQSENSCTHFPGNLPNMLRDLRDAFSRVKTFFQMKDQLDNLLLKESLLEDFKGYLGCQALSEMIQFYLEEVMPQAENQDPDIKAHVNSLGENLKTLRLRLRRCHRFLPCENKSKAVEQVKNAFNKLQEKGIYKAMSEFDIFINYIEAYMTMKIRN
Q: Which cell shape induced [1] does the source give for B3 here?
A: elongated cell shape
